The text below walks through data of patent US20180036395A1, “DOSAGE AND ADMINISTRATION OF MONOSPECIFIC AND BISPECIFIC ANTI-IGR-1R AND ANTI-ERBB3 ANTIBODIES” (Merrimack Pharmaceuticals, Inc., priority 2012, published 2018).

One data set relates to KP4 cells. The experiment in a line: In vitro signaling ELISA, KRAS mutant cells. The format is cell-based, human. To be noted: combination 500 nM P4-G1-M1.3 + 250 nM GSK1120212, 24 hours, 10% serum, FIG. 3. How it is done:
Cells were treated with 500 nM P4-G1-M1.3, 250 nM GSK1120212 or the combination for 24 hours in 10% serum and ELISA assays were performed. The data was normalized to 10% serum without treatment.
The preclinical models to support this example are performed using BxPC-3 (KRAS wild-type) and KP4 (KRAS mutant) cell lines.

Data set [1] concerns hepatocellular carcinoma (HCC). The experiment in a line: Treatment of patients with hepatocellular carcinoma. It is filed as in vivo, human. How it is done: (§1) P4-G1-M1.3 is formulated in 20 mM histidine, 100 mM arginine-HCl, 3% sucrose, at pH 5.5 supplemented with 0.002-0.02% of Tween® 80 at concentration range 5-15 mg/mL. P4-G1-M1.3 is administered to patients at 6 mg/kg, 12 mg/kg, 20 mg/kg, 30 mg/kg, 40 mg/kg, 50 mg/kg or 60 mg/kg q7d, ql4d, q21d, or q28d with a loading dose of 12 mg/kg, 20 mg/kg, 40 mg/kg, 40 mg/kg or 60 mg/kg Everolimus is administered to patients at 2.5 mg, 5 mg, or 10 mg orally once a day or once every other day.
Patients with hepatocellular carcinoma (HCC) are treated with P4-G1-M1.3 monotherapy. Patients are dosed with P4-G1-M1.3 as described in Example 1 (second line in patients refractory to sorafenib). […] Preclinical data to support this example may be obtained using HepG2 cells in vitro and in vivo.
Patients with hepatocellular carcinoma (HCC) are treated with a combination of an effective amount of sorafenib and an effective amount of P4-G1-M1.3. Patients are dosed with P4-G1-M1.3 as described in Example 1. Patients are dosed with sorafenib at 400 mg daily. […] Preclinical data to support this example may be obtained using HepG2 cells in vitro and in vivo.

Data set [2] deals with HepG2 hepatocellular carcinoma cells. Put plainly: HepG2 quantitative western blotting. The format is cell-based, human. The note with it: 2 hours or 6 hours, compared to either alone, FIG. 5. How it is done: Cells were treated with 500 nM P4-G1-M1.3, […] sorafenib or the combination for either 2 hours or 6 hours and quantitative western blotting was performed.
Buffer containing β-Mercaptoethanol (β-ME) is added and lysates are boiled for 5 minutes at 95° C. Approximately 40 μg of protein and two ladders (Invitrogen) are run on each well of an 18-well gel (BioRad). Gels are run at 150 volts constant for approximately 90 minutes and transferred to nitrocellulose membranes using the 8 minute transfer program of the iBlot® (Invitrogen) transfer system. Membranes are blocked in Odyssey® Blocking Buffer (Licor® Biosciences) for 1 hour at room temperature, and then incubated with primary antibodies overnight at 4° C. in 5% BSA in TBS-T. All antibodies are purchased from Cell Signaling and used at the recommended dilution. The following day membranes are washed 3×5 minutes each with TBS-T and then incubated with anti-Rabbit IgG—DyLight® 800 (Cell Signaling) or anti-Rabbit IRDye® 800 (Licor® Biosciences) at 1:10,000-15,000 in 5% milk in TBS-T for 1 hour at room temperature. Membranes were then washed 3×5 minutes each with TBS-T and scanned using the Licor® Odyssey® system (Licor® Biosciences). Intensities are quantified using Image Studio 2.0 and normalized to β-Actin levels. […]

Data set [3] has as its system locally advanced or metastatic breast cancer. Put plainly: Treatment of patients with locally advanced or metastatic breast cancer. It is filed as in vivo, human. The procedure: as §1
Patients with estrogen receptor positive or progesterone receptor positive or triple negative breast cancers that are locally advanced or metastatic, or with any of the tumor types listed in Examples 5-10, are treated with a combination of an effective amount of i) any of the mTOR inhibitors of the preceding examples (at doses as described therein), or with a pan-mTOR inhibitor (INK128, CC223, OSI207, AZD8055, AZD2014, or Palomid529) and ii) an effective amount of P4-G1-M1.3. Patients are dosed with P4-G1-M1.3 as described in Example 1. The dose of pan-mTOR inhibitor is the dose used in phase I or, preferably phase II or III clinical trials.
Postmenopausal women with estrogen receptor-positive locally advanced or metastatic breast cancer are treated with a combination of an effective amount of PI3K inhibitor (e.g., XL147 or BKM120) and an effective amount of P4-G1-M1.3. Patients are dosed with P4-G1-M1.3 as described in Example 1. XL147 is dosed at 25, 50, 100, or 200 mg orally once a day for 21 consecutive days. Alternately BKM120 is dosed at […] orally once a day for 28 consecutive days.
Women with estrogen or progesterone receptor positive locally advanced or metastatic breast cancer are treated with a combination therapy comprising or consisting of administration of an effective amount of an antihormonal therapy (such as tamoxifen, exemestane, letrozole or fulvestrant) and administration of an effective amount of P4-G1-M1.3. P4-G1-M1.3 is formulated and administered as described above. Antihormonal therapy is administered in accordance with manufacturer's directions.
Women with estrogen or progesterone receptor positive locally advanced or metastatic breast cancer are treated with a combination of an effective amount of PI3K/mTOR dual inhibitor NVP-BEZ235 and an effective amount of P4-G1-M1.3. Patients are dosed with P4-G1-M1.3 as described in Example 1. NVP-BEZ235 is given orally twice daily at doses of 400 mg, 600 mg, or 800 mg.
Women with locally advanced or metastatic breast cancer are treated with a combination of an effective amount of docetaxel (Taxotere®) and an effective amount of P4-G1-M1.3. Patients are dosed with P4-G1-M1.3 as described in Example 1. Patients are dosed with docetaxel at 25, 50, 75 or 100 mg/m^2 i.v. once every 3 weeks or per standard clinical practice.
Patients with metastatic breast cancer are treated with a combination of an effective amount of paclitaxel (Taxol®) or of eribulin and an effective amount of P4-G1-M1.3. Patients are dosed with P4-G1-M1 as described in Example 1. Patients are dosed per standard clinical practice for paclitaxel or eribulin.

The test system of another data set is BxPC-3 tumors. The experiment in a line: BxPC-3 xenograft pharmacodynamic (PD) study, western blotting of tumor lysates. The format is in vivo, human. The note with it: BxPC-3 PD study tumors. Background: A xenograft is tissue or cells of one species grown in another, often human tumour cells in immunodeficient mice.

Procedure for BxPC-3 tumors: BxPC-3 mouse xenograft models are established using 5×10^6 BxPC-3 cells that are resuspended 1:1 with PBS:Growth factor-reduced Matrigel® and injected subcutaneously into Nu/Nu mice. Tumors are allowed to develop for 8 days. Antibodies are injected intraperitoneally every 3 days (q3d) for 2 rounds of dosing.
For the BxPC-3 PD study, 4 treatment groups are established, each containing 4 mice. These included control, P4-G1-M1.3 (q3d, 600 μg), gemcitabine (q3d, 150 mg/kg) and P4-G1-M1.3+gemcitabine (combined individual doses). Tumors are excised on either day 19 or day 28, resulting in a total of 8 groups.
Tumors are initially weighed and pulverized in a CryoPrep® tissue pulverizer (Covaris). Tissue Extraction Reagent 1 (TER1, Life Technologies™) containing protease and phosphatase inhibitors was added to the tumor at a ratio of lml TER1 per 100 mg of tissue. Samples are incubated on ice for 30 minutes to solubilize tissue and put through a QIAshredder™ column (Qiagen) according to the manufacturer's protocol. A BCA assay (Pierce) is performed to determine protein concentration according to the manufacturer's protocol.
Using BxPC-3 xenografts, mice with control tumors were compared to those treated with monotherapy with P4-G1-M1.3, monotherapy with gemcitabine or combination therapy with P4-G1-M1.3 and gemcitabine.

B1: P4-G1-M1.3: anti-IGF-1R+anti-ErbB3 polyvalent bispecific antibody, IgG1-(scFv)2 (SEQ ID NO:148 and SEQ ID NO:149) (protein)
chain 1: EVQLLQSGGGLVQPGGSLRLSCAASGFLFSSYPMHWVRQAPGKGLEWVGSISPSGGATPYADSVKGRFTISRDNSKNTLYLQMNSLRPEDTAVYYCAKDFYNILTGNAFDKWGQGTSVTVSSASTGGGGSGGGGSGGGGSGGGGSDIQLTQSPSSLSASLGDRVTITCRASQGISSYLAWYQQKPGKAPKLLIYAGSTPQSGVPSRFSGSGSGTEFTLTISSLQPEDSGTYYCQQYWTWPLTFGGGTKVEIKRT
chain 2: EVQLVESGGGLVQPGRSLRLSCAASGFTFDDYAMHWVRQAPGKGLEWVSGISWNSGSTGYADSVKGRFTISRDNAKNSLYLQMNSLRAEDTALYYCARDLGYNQWLEGFDYWGQGTLVTVSSASTGGGGSGGGGSGGGGSGGGGSSSELTQDPAVSVALGQTVRITCQGDSLRSYYASWYQQKPGQAPVLVIYGKNNRPSGIPDRFSGSSSGNTASLTITGAQAEDEADYYCMSRDHPGNQWVFGGGTKVTVLG
modifications: Synthetic polypeptide:Anti-IGF-1R scFvs M76; Synthetic polypeptide:Anti-ErbB3 scFvs P6L
As for B1, the “signaling (pAkt Ser473, pERK)” value with KP4 cells is “inhibition of signaling”. Moreover, the “HCC symptoms (e.g., time to progression or progression-free survival)” value in data set [1] (P4-G1-M1.3 monotherapy, second line in patients refractory to sorafenib, vs untreated historical controls or best supportive care) was “statistically significant improvement in HCC symptoms”. For the same molecule, the treatment outcome in data set [1] (patients with HCC, sorafenib 400 mg daily + P4-G1-M1.3) was “combinatorially enhanced outcome”; in data set [3] (ER or PR positive breast cancer, NVP-BEZ235 + P4-G1-M1.3), “combinatorially enhanced outcome”; in data set [3] (ER or PR positive breast cancer, antihormonal therapy (tamoxifen, exemestane, letrozole or fulvestrant) + P4-G1-M1.3), “combinatorially enhanced outcome”; in data set [3] (ER positive, PR positive or triple negative breast cancers (or tumor types of Examples 5-10), mTOR or pan-mTOR inhibitor + P4-G1-M1.3) it was “combinatorially enhanced outcome”; in data set [3] (metastatic breast cancer, paclitaxel or eribulin + P4-G1-M1.3), “combinatorially enhanced outcome”; in data set [3] (postmenopausal women, ER-positive breast cancer, PI3K inhibitor (XL147 or BKM120) + P4-G1-M1.3), “combinatorially enhanced outcome”. Moreover, the treatment outcome in data set [3] (women with locally advanced or metastatic breast cancer, docetaxel + P4-G1-M1.3) is listed as “combinatorially enhanced outcome”. Also, in data set [2] (combination of 500 nM P4-G1-M1.3 and 504 sorafenib), the “downstream signaling (pErbB3, pAkt Ser473, pERK1/2)” value was “inhibits downstream signaling”. Further, the ErbB3 level result in data set [2] (combination of 500 nM P4-G1-M1.3 and sorafenib) is “downregulation of ErbB3”. For the same molecule, the ERK phosphorylation entry with BxPC-3 tumors (FIG. 2H) is recorded as “inhibits ERK phosphorylation”. For the same molecule, the “apoptosis-inducing activity of gemcitabine (survivin)” value in the data set on BxPC-3 tumors (P4-G1-M1.3 600 μg + gemcitabine 150 mg/kg q3d, FIG. 2H) is on record as “potentiates apoptosis-inducing activity of gemcitabine”. Also, the “level of receptor complexes (IGF-1R, Insulin Receptor, EGFR, ErbB3, ErbB2)” value with BxPC-3 tumors (P4-G1-M1.3 q3d 600 μg, FIG. 2A-2C) is given as “downregulates receptor complexes”. Also, the “PI3K/AKT/mTOR signaling (phospho-AKT, phospho-FoxO, phospho-PDK1, phospho-mTOR, phospho-S6, pRAS40, p4EB-PB1)” value with BxPC-3 tumors (P4-G1-M1.3 q3d 600 μg, FIG. 2D-2G, 2I, 2J) was “inhibits PI3K/AKT/mTOR signaling”.
